From the DeepSol protein solubility set

Test: soluble on expression in E. coli; label from the status in PepcDB or PDB records

| Sequence | soluble on expression in E. coli |
| --- | --- |
| MNRTLYTVLFHLGLPLVALRLWLRARKAPAYRQRIGERFASGLPAMQRDGIWVHAVSVGESIAAAPMIRALLVQYPQLPITVTCMTPTGSERIKALFANEPRIQYCYLPYDLPWAAGRFLDHVQPQLGIIMETELWPNHIHQCAKRAIPVVLANARLSERSARGYARFARLTQPMLAEMAWFAVQTEVEAQRFRDLGARAECVVVTGSIKFDLNIDPQLLERAAQLREQWQATQRPVWIAASTHAGEDESVLSAHRTLLASHPDALLILVPRHPERFDSVHALCQQQGFKTVRRSSAQAVTPDVAVLMGDTMGELLFLYALVDIAFVGGSLVPNGGHNLLEPAALAKPVLSGPHLFNFLEIAAMLRTAGALQEVSDATALATAVQRLIDQPQQARSMADAGLAVMKANQGALQRLLDGIERLMAKRRVAEDAERPERHAHAERRHDSAAALEHHHHHH | not soluble |
| MGSDKIHHHHHHMMGLPTLEQMQFQHAAAQLNALHAELIDDDRLEEWPDLFEEKCQYSVISAENHNRSLNLAAVFCDSRGMLVDRIVSLRRANIFPAHSYRHILGPTRVKSTSGQIVTTQTNYVVLMTRNDGQTSIYNSGKYVDQIDVSGAAPRFLSKTAIFDTHLIDTMMVRPI | not soluble |
| MSLVHNPDNTKLSDATFVIFDIETTGLHGRYDDVIEFSARKIKNNSEIDHQQFFLKIDKPIPKTITEITKITDEMLEGGIDQQQGLEKIRNYLDDCVMVAHNGINFDLPFLQTQFEKYNIKPLTNPLIDTLCLSWALNPLFSSHTLSNICSKLKLEFDDERLHRAEYDTEALKKVFFYFKKQLKEMGINTLTEIDQNLNKKCQIDLMKRVFTNTAIVYVKNQRGFQNLYEMLSIALTDHNANRPLVLASSLAKFRKSFLLTENPVQGDIFKAALTKPINELEKAIEKVDFVLISQPNAYLGYTLREGLKKELINDAIKLVIKTATKLKKLVAVASDAYFIHPWENEYYKAIVCAKGLGGKWHRHFNNKEKEQTVPEVFLHTTDEMLKRMSFLGEDIAYKLVVENTNKIVKLLDLNELVPTKNKLYPPVMQDSNQKLIDKTWKQAEKRYGKNLPKLIKERIEKEEGHHHHHH | soluble |
| MISLNNRLTTVSRFLKQGTIADIGSDHAYLPIYAIQNHLCECGIAGEVIQGPFQAAVKNVAANHLVERIDVRLGDGLSVIHPEDVIDNITICGMGGPLIAKILKDGQDKLSQHPRLILQSNIQTENLRQTLQQLNYEIIDEIIMEEKGHIYEIVVA | not soluble |
| MSLNAEIGIDSITLSIARVTPSTHWTFVEIVDEENRIGLGEATLTGRDSELLRAASDMFPAIVDMRVDDAASWLDTLELGTIARAAVASALSHAVTDLRARIRNRSIAELLGHPVRAFIPMYANINRRTHTRSPDSFAHSARSAVAAGFSAVKIAPFDGVTLYGSDAHAQPSLIDAALERIAAVRDAVGPAVDVMVDCHWRLNAHVARQVLASDVCDGLHWLECPLPETPDRLHELRALRSLANDRGIRLAGCEEAIRAEGFMPFVEAGAYDVMMPDVKYVGSVDEMLHVAQLLGRHDVEFSPHNPSGPVAHAVSMQICSLVPNFRRMEMQFDETPYFHTLTGATVPVPDNGGAQIARTSGIGMRLDRDALDPLTIRRLQFHRACRAGELVVTEGHHHHHH | soluble |
| MGSDKIHHHHHHMAYEQFAYVYDELMQDVPYPEWVAWVLEQVEPGKRIADIGCGTGTATLLLADHYEVTGVDLSEEMLEIAQEKAMETNRHVDFWVQDMRELELPEPVDAITILCDSLNYLQTEADVKQTFDSAARLLTDGGKLLFDVHSPYKMETLFNGKTYATHAEQSSYIWFADPGEEPLSVVHELTFFIEGEDGRYDRVDETHHQRTYPPEQYITWLREAGFRVCAVTGDFKSDAPTETAERIFFVAEKI | not soluble |
| DDKLRIGGTALFKRDRFVDNIGIEDSFFLKLMVDEMKQTTHQFQIDEDGEKAYVVVEKIFSSFNREMTGSMEAPHFRCHIHFRGEITDYTGPLTLTKDETMNKIEEGMARQIETKGEELLKRFQSLGIDPVGLGEKYRSHTRDWKPGVWHDSIYEQATVEVTAEVEIVQSGVTE | not soluble |
| DAAPAAGSTLDKIAKNGVIVVGHRESSVPFSYYDNQQKVVGYSQDYSNAIVEAVKKKLNKPDLQVKLIPITSQNRIPLLQNGTFDFECGSTTNNVERQKQAAFSDTIFVVGTRLLTKKGGDIKDFADLKGKAVVVTSGTTSEVLLNKLNEEQKMNMRIISAKDHGDSFRTLESGRAVAFMMDDALLAGERAKAKKPDNWDIVGKPQSQEAYGCMLRKDDPQFKKLMDDTIAQVQTSGEAEKWFDKWFKNPIPPKNLNMNFELSDEMKALFKEPNDKALNLEHHHHHH | soluble |
| MARNAEKAMTALARWRRMKEEEERGPIARRPHDVKDCRNLSDAERFRREIVRDASKKITAIQNPGLGEFKLRDLNDEVNRLIKLKHAWEQRIRELGGTDYRKYAQKELDAIGRETGNSRGYKYFGAAKDLPGVRELFEKSTEGEEQRRHRADLLRNIDAHYFGYLDDEDGRLIPLEKLIEEKNIERINKEFAEKQAQKQQTASDAAPENIYKVEEDDDDDLETQESTVIGEDGRPMTIRHVLLPTQQDIEEMLLEQKKQELMAKYLD | not soluble |
| DPEDPAEDIIQTAGTIAHRGADRQDGGWGSGGPKFPQNGRLHALLRAYADGGQEDYLNVVEETLDVMADRGLYDHVGGGFHRYATDQQWAVPHFEKMLYDNAEIPRAFLAGYQAIGSERYASVVRETFEFVQRELQHPDGGFFSTLDAESAPHSESRSDSEQSSGESPRDDPDGETEEGLFYVWTPEQVHDAVDDETDADIFCDYYGVTEQGNFEGATVLAVRKPVPVLAEEYERSEDEITASLQRALNETFEARKDRPRPARDEKVLAGWNGLMIRALAEGAIVLDDQYADVAADALSFVREHLWDADAGRLNRRYKDDDVAIDGYLEDYAFLGRGALTLFEATGDVEHLAFAMDLGQAITEAFWDDEQGTLFFTPTGGESLVARPQELTD | not soluble |
| VGVAVDRDELLGANAPPQGGSFRFYLDGERWEWSDSVARMHGYQPGEVIPTNEILLSHKHPDDQSQVAALFDKMIHAGEPFSSKHRIIDTDRRIHHVIVVGDRMLDENGQVIGTSGYYIDVTETLETDLREFNEALTEAVAGLEKSRAVIEQAKGALMLVYGISSERAFGILTWRSQETNIKLHTLAERFVGALAAEATLPASFRARFDHLLLTAHEYPDEQADHPA | not soluble |
| MVEIIDTTFRDAHQSLIATRMSTKDMLPIAEKMDKIGFYSMEVWGGATFDVSLRFLREDPWERLKLLREHIRKTKLQMLLRGQNLVGYRHYPDDVVEKFVELAYKNGIDIFRVFDALNDVRNMKTAIKKAKEIGAEVQGAICYTTGPIFTIDYYLQKVDELIELDVDYITIKDMAGLADPQTAYELVKEIKERYGIKVNFHTHATSGLAVATYLKAVEAGVDYIDTSIYPLAGGTAQPAVQTMYYALPKGKRPKLNIKLIHEISKYLTNLLEKKYDHLLTKKAIHGDPNVLIHQIPGGMYSNLIKQLSELKALDKLEEVLEEVPRVREDLGYPPLVTPTSQIVGVQAVLNVLFGRYKQVTKETKDYVRGLYGRPPGKIKEEIKKLILGDEEPINVRPADLLEPMLEKAKKELKEKGYLEKEEDVVTYCLFPQVALEFFELRRQGRLRPVEEKPKGKPIKIYINGKEFEVFVEGIEFEPPKPKPQVQAIPSQPPKREVVAPSGSVVSAPMPGKVLRVLVRVGDRVRVGQGLLVLEAMKMENEIPSPRDGVVKRILVKEGEAVDTGQPLIELE | soluble |
| MSLAEKIKVLIVDDQVTSRLLLGDALQQLGFKQITAAGDGEQGMKIMAQNPHHLVISDFNMPKMDGLGLLQAVRANPATKKAAFIILTAQGDRALVQKAAALGANNVLAKPFTIEKMKAAIEAVFGALK | soluble |
| AFTMEIPPTHYAASRAASVAENCINYQQGTPHKLFLVQTVQQASKEDIPGRGHKYHLKFSVEEIIQKQVTVNCTAEVLYPQMGQGSAPEVNFTFEGEIGKNPDEEDNTFYQSLMSLKRPLEAQDIPDNFGNVSPQMKPVQHLAWVACGYVMWQNSTEDTWYKMLKIQTVKQVQRNDDFIELDYTILLHDIASQEIIPWQMQVLWHPQYGTKVKHNSRLPKEGQAE | soluble |
| MEGNHEEPQGGLEELSGRWHSVALASNKSDLIKPWGHFRVFIHSMSAKDGNLHGDILIPQDGQCEKVSLTAFKTATSNKFDLEYWGHNDLYLAEVDPKSYLILYMINQYNDDTSLVAHLMVRDLSRQQDFLPAFESVCEDIGLHKDQIVVLSDDDRCQGSRDLEHHHHHH | soluble |
| PAFALTSPWAGSDAAAIPDHGTVCKGQWQGQEVLGMRVTWDKRYITLAPVCTLLGLAFRLYDPDGLLGGRKDLGITCALVPHDHPGVDTGRRHFPLNAMFMNGPTRGTDVFMPLEFIIDG | not soluble |
| MIKINISQNFLVAKGHALFAEKGKDIVCAAISGIIFGGVAWFEPDKIEFTENKLVPSIALKLIDPTPNVAVAFSVITVQLKAIANSYPNHIVINEESYE | soluble |
| MGMYFVGIDGGGTSCRARIKDSQGNFLGEAKSGSANIMLGAEIAMASILESITSAAEQGGLTQQDFASMHVGLALAGAEHKASWQAFMSLPHPFASMTLNTDAYGACVGAHNGEDGAIMIAGTGSCGIYLKGLEQHVVGGREFPISDQGGGAVMGLRLVQQVLLAEDGIREKTPLAQHVMAYFENDVDNVVAWSKQALPRDYGQFSPAIFQHAEQGDALAIEMLKQTAADIEMFLVALNKRGATRICLMGSIAERILRWLSPPVQQWVVEPQFDAIEGAIMFAGKPEHNLYSLSAALEHHHHHH | not soluble |
| GPGSMMDCDHLLRLGMTAKKILENGKGILAADETPKTLGRRFEKLGITNTEENRRKFREILFSTKGIERYIGGVILNQETFEQTSGSGVPLTELLKKKGIEIGIKLDKGLIDYKEKEKISVGLEDLDLRCKSSAFKDATFAKWRSLFYFYDGIPSEDCINENCSILAKYAIICQKNGLVPIVEPEVFLEGDYSMKRSYEVTRQILSTLMKYLNYELVYIPGVLIKASYVTSGQLSNEKYTPKKVATFTLRALLSTIPCGIPGIVFLSGGHGSEDAIGFLNAINMERGCRTWSLSFSFARALTDGVLETWRGDDSNIEEAQKILLETSFKACRGAEGKLWDQE | soluble |
| GSHMKFTRVCDRRDVPEGEALKVESGGTSVAIFNVDGELFATQDRCTHGDWSLSDGGYLEGDVVECSLHMGKFCVRTGKVKSPPPCEALKIFPIRIEDNDVLVDFEAGYLAP | soluble |
| EVVKRDRIRNKDRPAMQLYQPGARSRNRLCPPDDSTKSGDSAAERKQESGISHRKEGGEE | soluble |
| SDLQTRFRPPGAEISIIGLSASLAELVPPSNIENAPQIPRGEDGFFERVGNATREMLVYVGSVVRFIKECVLVFKLGINRRKNVNWTTVSNIATRAGADAVP | not soluble |
| MGSDKIHHHHHHMKKYVLSLALLGSLLGASELKYQEFDGFKSPESIFVDKNYVYVSNVGEKLEPLAKDNDGFISKLDKNGKVLEYKFLTHLNAPKGMMEIGKTLYVVDIDVLRGFDLKTKKEIFNLPIKGAIFLNDIEKLDDNTLLVSDTGTGLILKVDLKTKQYDELLKLDLAKFGGPNGLYLDRKKHKLFIAGYHPDGVSGGVVMAYDLNTKELSIIKNEKESYDGIVPYKDGLLVSSWGNNLNGYIYNLDNVKSVKLELPLMKGPADIFIEGNILWIPKMVEGKIFKVELNK | not soluble |
| MKSVMSNPTFRQDSIRMFRGRKPPQKGKPAMEIKSERSDSQHTLTITVPLGKASRNDQPPSNLTEEAAKKVAGTGRNDGKKVQFAEKLVNKTKSPSTGPSTSKKLQKSQKTQKSSKKSQKKSKKSKKSSKSK | not soluble |
| MSSYKNILVAIDGSYESELAFEKGVSVALRNDANLLLTHVVDTRALQSVATFDAYIYEKLEQEAHSVLDDYENQARERGLEKVRQIIEFGNPKPLLATEIPEREHVDLIMLGATGLNAFERLLIGSSSEYILRHAKVDLLVVRDPEKTL | not soluble |
